According to patent US20200308241A1 (published 2020):

Assays:
[1] = target: T1, Purified EGFR (R&D Systems, Minneapolis, Minn.) (Homo sapiens (Human), UniProt P00533 25-645); assay: EGF-EGFR binding assay
T1 construct: Bought protein coated on an ELISA plate; also called immobilized EGFR; EGF receptors
Method: (§1) Purified EGFR (R&D Systems, Minneapolis, Minn.) was diluted in coating buffer (0.2 M sodium carbonate/bicarbonate pH 9.4, 0.5 1 g/mL) and immobilized on an ELISA plate by incubation at 4° C. overnight. […] The peroxidase reaction was stopped 30 min after the addition of 0.5 M H₂SO₄ ([…]/well), and the absorbance was measured at 450 nm with a multichannel microtiter plate reader.

[2] = target: T1, Purified EGFR (R&D Systems, …); assay: ELISA, EGFR on the plate, his6-tagged ligand 0-50 nM, HRP anti-his6 detection
Method: as §1

Kd [1]: ~10 nM | Kd [2]: < 5 nM
B1: mGM-CSF-hEGF fusion protein of Example 1 (other)
chain: SPITVTRPWKHVEAIKEALNLLDDMPVTLNEEVEVVSNEFSFKKLTCVQTRLKIFEQGLRGNFTKLKGALNMTASYYQTYCPPTPETDCETQVTTYADFIDSLKTFLTDIPFECKKPGQKVPGVGVPGVGNSDSECPLSHDGYCLHDGVCMYIEALDKYACNCVVGYIGERCQYRDLKWWELRHHHHHH
notes: The assays call it his6-tagged; also called GM-CSF-EGF conjugate; GM-CSF-EGF fusion protein
